From article PMC4219644 (Journal of molecular biology, 2014)
Numbering of substitutions follows the chain as printed. In names and notes the source's numbering stands.

T1: bovine RNase A (bovine, UniProt P61823 27-150)
T1 sequence (looked up): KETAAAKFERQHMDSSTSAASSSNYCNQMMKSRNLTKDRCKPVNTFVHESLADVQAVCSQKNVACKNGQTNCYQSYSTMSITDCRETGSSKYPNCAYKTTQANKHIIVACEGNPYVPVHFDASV

T2: human RNase 1 (human, UniProt P07998 29-156)
T2 sequence: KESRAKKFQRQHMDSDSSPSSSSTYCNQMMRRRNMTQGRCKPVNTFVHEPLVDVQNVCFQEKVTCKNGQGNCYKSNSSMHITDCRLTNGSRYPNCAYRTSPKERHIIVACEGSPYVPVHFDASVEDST

T3: mouse RNase 1 (mouse (M. musculus), UniProt P00683 26-149)
T3 sequence (looked up): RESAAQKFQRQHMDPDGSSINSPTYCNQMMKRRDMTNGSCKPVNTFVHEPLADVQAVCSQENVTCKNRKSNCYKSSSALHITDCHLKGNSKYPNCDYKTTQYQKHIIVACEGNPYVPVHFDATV

B1: bovine ribonuclease inhibitor (natural protein, bovine (B. taurus))
chain: MKLDIQCEQLSDARWTELLPLIQQYEVVRLDDCGLTEVRCKDIGSALQANASLTELSLRTNELGDGGVLLVLQGLQSPTCKIQKLSLQNCCLTEAGCGVLPGVLRSLPTLRELHLSDNPLGDAGLRLLCEGLLDPRCRLEKLQLEYCSLTAASCEPLAAVLRATRDLKELVVSNNDIGEAGVQALCRGLAESACQLETLKLENCGLTAANCKDLCGIVASQASLKDLDLGSNRLGDAGLAELCPGLLSPSSQLRTLWLWECDLTVSGCRELCRVLQAKEALKELSLAGNSLGDEGAQLLCESLLQPGCQLESLWVKSCGFTAACCQHFSSMLTQNKHLLELQLSSNPLGDAGVHVLCQALGQPGTVLRVLWVGDCELTNSSCGGLASLLLASPSLRELDLSNNGLGDPGVLQLLGSLEQPACSLEQLVLYDIYWTEAVDERLRAVEESKPGLRIIS
B2: A19C bovine RNase 1, labeled with diethylfluorescein (DEFIA) (enzyme, UniProt P61823 27-150, looked up)
chain: T1 sequence (looked up) with A19C
modifications: diethylfluorescein (DEFIA) on the introduced cysteine 19
B3: human ribonuclease inhibitor (natural protein, human (H. sapiens))
chain: MSLDIQSLDIQCEELSDARWAELLPLLQQCQVVRLDDCGLTEARCKDISSALRVNPALAELNLRSNELGDVGVHCVLQGLQTPSCKIQKLSLQNCCLTGAGCGVLSSTLRTLPTLQELHLSDNLLGDAGLQLLCEGLLDPQCRLEKLQLEYCSLSAASCEPLASVLRAKPDFKELTVSNNDINEAGVRVLCQGLKDSPCQLEALKLESCGVTSDNCRDLCGIVASKASLRELALGSNKLGDVGMAELCPGLLHPSSRLRTLWIWECGITAKGCGDLCRVLRAKESLKELSLAGNELGDEGARLLCETLLEPGCQLESLWVKSCSFTAACCSHFSSVLAQNRFLLELQISNNRLEDAGVRELCQGLGQPGSVLRVLWLADCDVSDSSCSSLAATLLANHSLRELDLSNNCLGDAGILQLVESVRQPGCLLEQLVLYDIYWSEEMEDRLQALEKDKPSLRVIS
B4: mouse ribonuclease inhibitor (natural protein, mouse (M. musculus))
chain: MSLDIQCEQLSDARWTELLPLIQQYEVVRLDDCGLTEVRCKDISSAVQANPALTELSLRTNELGDGGVGLVLQGLQNPTCKIQKLSLQNCGLTEAGCGILPGMLRSLSTLRELHLNDNPMGDAGLKLLCEGLQDPQCRLEKLQLEYCNLTATSCEPLASVLRVKADFKELVLSNNDLHEPGVRILCQGLKDSACQLESLKLENCGITAANCKDLCDVVASKASLQELDLSSNKLGNAGIAALCPGLLLPSCKLRTLWLWECDITAEGCKDLCRVLRAKQSLKELSLASNELKDEGARLLCESLLEPGCQLESLWIKTCSLTAASCPYFCSVLTKSRSLLELQMSSNPLGDEGVQELCKALSQPDTVLRELWLGDCDVTNSGCSSLANVLLANRSLRELDLSNNCMGGPGVLQLLESLKQPSCTLQQLVLYDIYWTNEVEEQLRALEEERPSLRIIS
B5: S19C mouse RNase 1, labeled with diethylfluorescein (DEFIA) (enzyme, mouse (M. musculus), UniProt P00683 26-149, looked up)
chain: T3 sequence (looked up) with S19C
modifications: diethylfluorescein (DEFIA) on the introduced cysteine 19
B6: P19C human RNase 1, labeled with diethylfluorescein (DEFIA) (enzyme, UniProt P07998 29-156, looked up)
chain: T2 sequence with P19C
modifications: diethylfluorescein (DEFIA) on the introduced cysteine 19

How the values were obtained:
[1] = target: chicken RNase A-1 (chicken (G. gallus))
[2] = target: anole RNase 1 (anole lizard (Anolis carolinensis))
bovine RNase A = target: T1, bovine RNase A
[3] = target: B3; experiment: fluorescence dissociation-rate assay
[4] = target: B4; experiment: fluorescence dissociation-rate assay
human RNase 1 = target: T2, human RNase 1
mouse RNase 1 = target: T3, mouse RNase 1

Molecule: chicken ribonuclease inhibitor (natural protein)
- stoichiometry N [1]: 1

Molecule: anole ribonuclease inhibitor (natural protein)
- stoichiometry N [2]: 1

Molecule: B1
- stoichiometry N (bovine RNase A): 1

Molecule: B2
- binding result [3]: binds
- binding result [4]: binds

Molecule: B3
- stoichiometry N (human RNase 1): 1

Molecule: B4
- stoichiometry N (mouse RNase 1): 1

Molecule: B5
- binding result [3]: binds

Molecule: B6
- binding result [4]: binds
